These results are taken from patent US20210332115A1.

For the assay, the target named is cynomolgus monkey factor Bb (cynomolgus monkey). The experiment in a line: BLI Octet, biotinylated antibody on SA biosensors. (BLI is a label-free optical method that tracks binding on a fibre tip over time.)

B1: Anti-factor Bb mouse monoclonal antibody (antibody, V domains shown)
VH: EVQLVESGGALVKPGGSLKLSCAASGFTFSNYAMSWVRQTPEKRLEWVATISNRGSYTYYPDSVKGRFTISRDNAKNTLYLQMSSLRSEDTALYYCARERPMDYWGQGTSVTVSS
VL: DIVMTQSHKFMSTSVGDRVSITCKASQDVGTAVAWYQQKPGQSPKLLIYWASTRHTGVPDRFTGSGSGTDFTLTITNVQSEDLAVYFCHQHSSNPLTFGAGTKLELK
For the molecule B1, the dissociation constant Kd (as a rule, the equilibrium constant for the complex coming apart) was 11 nM.

B2: VH4/Vκ7 (antibody, V domains shown)
VH: EVQLVESGGGLVKPGGSLRLSCAASGFTFSNYAMSWVRQAPGKRLEWVATISNRGSYTYYPDSVKGRFTISRDNAKNSLYLQMSSLRSEDTALYYCARERPMDYWGQGTSVTVSS
VL: DIQMTQSPSTLSASVGDRVTITCKASQDVGTAVAWYQQKPGKAPKLLIYWASTRHTGVPDRFSGSGSGTDFTLTISSLQAEDFAVYFCHQHSSNPLTFGQGTKLEIK
B2 returned a Kd of 11 nM.

B3: VH6/Vκ6 (antibody, V domains shown)
VH: EVQLVESGGGLVKPGGSLRLSCAASGFTFSNYAMSWVRQAPGKRLEWVATISNRGSYTYYPDSVKGRFTISRDNAKNSLYLQMNSLRAEDTALYYCARERPMDYWGQGTLVTVSS
VL: DIVMTQSPSFLSASVGDRVTITCKASQDVGTAVAWYQQKPGKAPKLLIYWASTRHTGVPDRFTGSGSGTDFTLTISSLQSEDFAVYFCHQHSSNPLTFGQGTKLEIK
With B3, the Kd was found to be 11 nM.

B4: VH7/Vκ7 (antibody, V domains shown)
VH: EVQLVESGGGLVKPGGSLRLSCAASGFTFSNYAMSWVRQTPEKRLEWVATISNRGSYTYYPDSVKGRFTISRDNAKNSLYLQMNSLRAEDTALYYCARERPMDYWGQGTLVTVSS
VL: DIQMTQSPSTLSASVGDRVTITCKASQDVGTAVAWYQQKPGKAPKLLIYWASTRHTGVPDRFSGSGSGTDFTLTISSLQAEDFAVYFCHQHSSNPLTFGQGTKLEIK
Consider B4, for which the dissociation constant Kd was 16 nM.
